Drawing on patent publication US20090214555A1, this text covers percent of anti-Syn2vE1a signals blocked for 1 molecule.

The target in this assay is rabbit polyclonal anti-Syn2vE1a antibodies. Description: epitope peptide competition: antisera pre-absorbed with 3 mg/ml synthetic epitope peptide, then Western blot on Syn2vE1a lysate. In general terms: Immunoblotting shows a protein as a band on a membrane.

Where no end group is shown, it is not given here.

The molecule CGIRRAPLYKRHPTGTA-NH2 [synthetic epitope peptide (C)…-amide] gave a percent of anti-Syn2vE1a signals blocked greater than 98%.
